Blank lines part the entries; values can stand above or below the molecule they belong to.
Columns and labels:
[1] = biological target: BDCA-2 Ser49Cys variant extracellular domain fused to an N-terminal 3-heptad coiled-coil dimerization domain (human) (UniProt Q8WTT0); assay: SEC; 1 x 30 cm Superdex S75, 10 mM Tris-Cl pH 7.8, 100 mM NaCl, 2.5 mM EDTA, 0.5 mL/min, room temperature; some fragments analysed at serial dilutions
[2] = biological target: BDCA-2 Ser49Cys variant extracellular domain fused to an N-terminal 3-heptad coiled-coil dimerization domain (human) (UniProt Q8WTT0); assay: non-reducing versus reducing SDS-PAGE (disulfide-linked dimer); bacterially expressed extracellular domain fusions eluted from a 5-mL desialylated egg glycopeptide column with EDTA, gels with or without 2-mercaptoethanol, Coomassie blue
[3] = biological target: dectin-2 extracellular fragment beginning with His44 fused to an N-terminal 3-heptad coiled-coil dimerization domain (human) (UniProt Q6EIG7); assay: SEC; 1 x 30 cm Superdex S75, 10 mM Tris-Cl pH 7.8, 100 mM NaCl, 2.5 mM EDTA, 0.5 mL/min, room temperature; some fragments analysed at serial dilutions
[4] = biological target: dectin-2 extracellular fragment beginning with His44 fused to an N-terminal 3-heptad coiled-coil dimerization domain (human) (UniProt Q6EIG7); assay: cross-linking; dectin-2 extracellular domain with dimerization domain in HEPES pH 7.8 buffers, bis(sulfosuccinimidyl) suberate or disuccinimidyl tartrate, serial dilutions, room temperature 30 min, reducing 17.5% SDS-PAGE, Coomassie blue
[5] = biological target: wild type BDCA-2 extracellular domain (from His44) fused to an N-terminal 3-heptad coiled-coil dimerization domain (human) (UniProt Q8WTT0); assay: SEC; 1 x 30 cm Superdex S75, 10 mM Tris-Cl pH 7.8, 100 mM NaCl, 2.5 mM EDTA, 0.5 mL/min, room temperature; some fragments analysed at serial dilutions
[6] = biological target: the molecule itself; assay: cross-linking; BDCA-2 purified from HEK cells in HEPES pH 7.8 buffers, pooled fractions reacted with various concentrations of bifunctional reagent for 30 min, reducing SDS-PAGE, western blot
[7] = biological target: the molecule itself; assay: non-reducing versus reducing SDS-PAGE (disulfide-linked dimer); BDCA-2 purified from HEK cells by affinity chromatography (lysis with N-ethylmaleimide), gels with or without 2-mercaptoethanol, western blot with anti-BDCA-2 antiserum
[8] = biological target: the molecule itself; assay: SEC; 1 x 30 cm Superdex S75, 10 mM Tris-Cl pH 7.8, 100 mM NaCl, 2.5 mM EDTA, 0.5 mL/min, room temperature; some fragments analysed at serial dilutions

Molecule: BDCA-2 Ser49Cys variant extracellular domain fused to an N-terminal 3-heptad coiled-coil dimerization domain (from UniProt Q8WTT0 44-213)
- stoichiometry N [1]: 2
- stoichiometry N [2]: 2

B1: blood dendritic cell antigen 2 (BDCA-2), full-length, wild type (receptor, human, UniProt Q8WTT0 1-213, looked up)
chain: MVPEEEPQDREKGLWWFQLKVWSMAVVSILLLSVCFTVSSVVPHNFMYSKTVKRLSKLREYQQYHPSLTCVMEGKDIEDWSCCPTPWTSFQSSCYFISTGMQSWTKSQKNCSVMGADLVVINTREEQDFIIQNLKRNSSYFLGLSDPGGRRHWQWVDQTPYNENVTFWHSGEPNNLDERCAIINFRSSEEWGWNDIHCHVPQKSICKMKKIYI
modifications: N-linked glycans (high mannose and complex)
notes: human BDCA-2, full-length protein expressed in HEK cells; Co-expressed with human FcRγ; no tag is mentioned; also called wild-type BDCA-2; source: HEK 293 cells, stably co-transfected with FcRγ; in lysate and purified from lysate on a desialylated egg-glycopeptide column
- stoichiometry N [6]: 2

B2: BDCA-2 Ser49Cys variant, full-length (receptor, human, UniProt Q8WTT0 1-213, looked up)
chain: MVPEEEPQDREKGLWWFQLKVWSMAVVSILLLSVCFTVSSVVPHNFMYCKTVKRLSKLREYQQYHPSLTCVMEGKDIEDWSCCPTPWTSFQSSCYFISTGMQSWTKSQKNCSVMGADLVVINTREEQDFIIQNLKRNSSYFLGLSDPGGRRHWQWVDQTPYNENVTFWHSGEPNNLDERCAIINFRSSEEWGWNDIHCHVPQKSICKMKKIYI
modifications: interchain disulfide bond at Cys49; N-linked glycans (high mannose and complex)
notes: human BDCA-2, full-length construct with the naturally occurring change Ser49Cys (SNP found in a single individual); Co-expressed with human FcRγ; also called Ser49Cys form of BDCA-2; source: HEK 293 cells, stably co-transfected with FcRγ; in lysate and purified from lysate on a desialylated egg-glycopeptide column
- stoichiometry N [7]: 2

B3: dectin-2 extracellular domain starting at Val40 (CRD plus full neck) (domain or fragment, human, UniProt Q6EIG7 40-209, looked up)
chain: VVTYHFTYGETGKRLSELHSYHSSLTCFSEGTKVPAWGCCPASWKSFGSSCYFISSEEKVWSKSEQNCVEMGAHLVVFNTEAEQNFIVQQLNESFSYFLGLSDPQGNNNWQWIDKTPYEKNVRFWHLGEPNHSAEQCASIVFWKPTGWGWNDVICETRRNSICEMNKIYL
notes: human dectin-2 (CLEC-6A) extracellular region starting at Val40; also called full extracellular domain of dectin-2; CRD plus neck fragment starting at residue Val40; source: E. coli BL21(DE3), inclusion bodies, renatured, purified on mannose-Sepharose
- stoichiometry N [8]: 2

Next, values leading:

- stoichiometry N [3]: 2
- stoichiometry N [4]: 2
Molecule: dectin-2 extracellular fragment beginning with His44 fused to an N-terminal 3-heptad coiled-coil dimerization domain (from UniProt Q6EIG7 44-209)

- stoichiometry N [5]: 2
Molecule: wild type BDCA-2 extracellular domain (from His44) fused to an N-terminal 3-heptad coiled-coil dimerization domain (from UniProt Q8WTT0 44-213)

Source: paper PMC11632364, “Interactions that define the arrangement of sugar-binding sites in BDCA-2 and dectin-2 dimers” (Glycobiology, 2024)
